In patent CN117866904A (BEILAI PHARMACEUTICAL CO LTD, dated 2024):
Values belong to the binder of their own block, whether it stands above or below them.

Legend:
[1] = biological target: 生物素化的IL-17A of the ACRO Biosystems IL-17A[Biotinylated]:IL-17RA Inhibitor Screening ELISA Kit (EP-139) (UniProt Q16552); assay: blocking ELISA kit: IL-17RA coated, biotinylated IL-17A; G4-H10-MSC supernatant diluted 5-fold; inhibition = [OD450 positive well - OD450 sample well]/OD450 positive well
[2] = biological target: T1, IL-17A重组蛋白(抗原), IL-17 antigen with a C-terminal 6×His tag, expressed in E. coli BL21 (human, UniProt Q16552 24-155, limits assumed); assay: cell-based or functional assay
T1 sequence: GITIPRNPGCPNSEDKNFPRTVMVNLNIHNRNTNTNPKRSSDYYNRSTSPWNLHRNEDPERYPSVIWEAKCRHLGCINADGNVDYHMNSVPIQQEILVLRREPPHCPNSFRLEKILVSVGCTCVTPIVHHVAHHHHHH

[3] = biological target: T2, Biotin-IL-17A-His (UniProt Q16552 24-155, limits assumed, biotinylated (Biotin-IL-17A-His); site not stated); assay: ELISA: antibody coated at 2 ug/mL; Biotin-IL-17A-His titrated from 10 ug/mL, 5-fold, 7 points; HRP-streptavidin; OD450
T2 construct: not shown: His tag
T2 sequence (looked up): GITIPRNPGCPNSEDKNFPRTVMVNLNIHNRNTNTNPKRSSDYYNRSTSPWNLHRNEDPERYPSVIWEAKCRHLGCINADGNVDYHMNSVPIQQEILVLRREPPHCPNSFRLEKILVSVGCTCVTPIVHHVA

结合抑制率 (IL-17A/IL17RA) [1]: 60%
B1: IL-17Nb secreted by G4-H10-MSC (G4-H10:Fc融合蛋白, VHH-(GGGGS)3-VHH-IgG4 Fc) (Fc fusion)
chain: QVQLVESGGGLVQPGGSLRLSCAASGEKLDYFAIGWFRQAPGKEREVVSCVTSSGSSTNYLSSVKDRFTISIDNAKNTVYLQMNSLKPEDTAIYYCASTILLCSDYISAFGTWGQGTQVTVASGGGGSGGGGSGGGGSEVQLVESGGGLVQPGGSLRLSCAASGFSIHIYAMGWYRQAPGKQRELVATITRGGVTNNADSVKGRFTISRDNAKNTAYLQMNSLKPEDTAVYYCNAGGTNGGYWGQGTQVTVSSAPEFLGGPSVFLFPPKPKDTLMISRTPEVTCVVVDVSQEDPEVQFNWYVDGVEVHNAKTKPREEQFNSTYRVVSVLTVLHQDWLNGKEYKCKVSNKGLPSSIEKTISKAKGQPREPQVYTLPPSQEEMTKNQVSLTCLVKGFYPSDIAVEWESNGQPENNYKTTPPVLDSDGSFFLYSRLTVDKSRWQEGNVFSCSVMHEALHNHYTQKSLSLSLGK

IC50, 阻断Human IL-17A蛋白激活293F-IL-17RA-IL-17Rc-ACT1-NFκB-Luc报告基因细胞株 [2]: 2.23 nM | EC50 [3]: 10.1 µg/mL
B2: 阳性对照抗体Ixekizumab (antibody, human IgG4 S228P, kappa, V domains shown)
VH: QVQLVQSGAEVKKPGSSVKVSCKASGYSFTDYHIHWVRQAPGQGLEWMGVINPMYGTTDYNQRFKGRVTITADESTSTAYMELSSLRSEDTAVYYCARYDYFTGTGVYWGQGTLVTVSS
VL: DIVMTQTPLSLSVTPGQPASISCRSSRSLVHSRGNTYLHWYLQKPGQSPQLLIYKVSNRFIGVPDRFSGSGSGTDFTLKISRVEAEDVGVYYCSQSTHLPFTFGQGTKLEIKR
notes: also called 阳性抗体
